Assay results published in the supplement of paper PMC9170038.

Test system: MS2 coat protein
Experiment: apparent KD of MS2 coat protein; higher = weaker reporter binding
Settings: Eterna round: R107
How it was run: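 Designed RNA switches were transcribed on-chip from Illumina sequencing clusters. SNAP-549-labelled MS2 coat protein was titrated onto them in twofold steps from 0.7 or 1.5 nM to 3 µM in 100 mM Tris-HCl pH 7.5, 80 mM KCl, 4 mM MgCl2, either without or with constant ligand. Apparent KD reflects the per-design median of normalised cluster binding-curve fits.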

[1] = input ligand: theophylline 20 uM
[2] = input ligand: tryptophan 2.4 mM
[3] = input ligand: theophylline 2 mM

Sequence	apparent KD of MS2 coat protein (input ligand: arginine 13.2 mM) [nM]	apparent KD of MS2 coat protein [1] [nM]	apparent KD of MS2 coat protein [2] [nM]	apparent KD of MS2 coat protein (input ligand: none) [nM]	apparent KD of MS2 coat protein [3] [nM]
UCGUGUAUAACGGAUACCAGUGAGAAGGAUACAUGAGGAUCACCCAUGUGAGUUGAUGUACACCCUUGGCAGCUGUAUAUAUCUA [llpmullin]	58.3	81.9	73.3		
AAUACCGGUCCUCGAAGCAUGGGUGAUCAACGAGGACCGGUACGGCCGCCACUCGAUAACAUGAGGAUCACCCAUGUAAUAAUAA [|T'-M'-Trp-Ms2|_Design5]	34.4	395	569	313	552
UGGUACAUGGCGGCCGCCACUUCACGUAAAAUAAAAACUUGAGGAUCACCCAAGUAAUAAGUUGGGAGGACCGGGUCAUGUACCU	18.4	23.2	14		19.2
GCUAGGUCUACGGCCGCCACUAGACGUGGGUAAGACAUGAGGAUCACCCAUGUACUACGGGCGCUUAGGACCGGGUAGACCUAGC [SSTB NP+V+V2 #17 +-Same Structure]	116	187			285
GGAACAUGAGGAUCACCCAUGUAAUCACGACGAGGACCGGUACGGCCGCCACUCGUAUUCACGCAAGGUAGAGGAAUACGUAGGC [theeternabot_exclusion_MS2_Trp_A_2]	15.4	17.6			14.3
AUACAUGAGGAUCACCCAUGUGAUGGCCGGCGAGGACCGGUACGGCCGCCACUCGUGAUCCGUCCUGAAAGCAAAGCUUCCAGCA [Terion]	37.4	273			437
CUAGAUGGAAACGUCUGGACGCACAAGCGACGAGGACCGGUACGGCCGCCACUCGAAGAGUGGUGGACAUGAGGAUCACCCAUGU [Design 4 MOD]	36.5	87.4			78
GCCUAGCAUCGAAGGAGCGGGCAUUACGCGCGAAAGCGCGAUACUUGAGGAACACCCAAGUCCCAGGUAGGUCGCGAUGCUAGGC [SSAB Alternative Aptamer #3 NP+V+V2]	31.4	127	83.5	70.9	94.9
GGUUGAUAUAUAUAUAUAUUGAUUACUGAAGGAGCGGGAAAUAACCCAGGUAGGUCGCAGAGAUCCACAUGAGGAUCACCCAUGU [!0.F]	31.9	50.4	56.9	42.7	60.5
UGGUACAUGGCGGCCGCCACUUCACGUAAAAUAAAAACUUGAGGAACACCCAAGUAAUAAGUUGGGAGGACCGGGUCAUGUACCU	35.3	41.7	26.1	36.2	39.1
GAUGCACAUGAGGAUCACCCAUGUCCUGAUACCAGAACGCGACUUUUCCCUUGGCAGCAGAAUUCACUUUUUUACAUUCAUACUG [theeternabot_sameState_MS2_Theo_A_11]	22.7	30.6	27		
ACCGCAUCCGUAUAGGAUGCGGCCCAUGAAGGAGCGUGGGAAACCACAGGUAGGUCGCAUGGACAUGAGGAUCACCCAUGUUAUU [Inception]	43.7	79.3	48.3	59.8	62.7
AUGUGCAAUACGGAUACCAGCCCGUGUAGAUACAUGAGGAUCACCCAUGUCAAUGUAAAUGGCCCUUGGCAGCCGUUUGGGAGGC [theeternabot_sameState_MS2_Theo_B_35]	13.4	19.9	19.4		
AUUCAUAACUGAAGGAGCGUGAUAUAAAUUUUUACAUGAGGAUCACCCAUGUUUCAUAGAUCACAGGUAGGUCGCAGAUUCUCAU [JR_SSArginiB_Sub011]	36.8	42.4	39.2	45.2	42.9
UUAAUCAGGUUAGAAAACUAAUUUGCAGAAGGAGCGUGAUAAAACACAGGUAGGUCGCUGAAGGGAACAUGAGGAUCACCCAUGU [AstrosSSArgA#10]	22.9	32.7	26	26.3	28.5
AACAUACAAUAAUAGGUGGAUAUAAGGCGGCGAGGACCGGUACGGCCGCCACUCGCGUACAUGAGGAUCACCCAUGUCUGAAACU [Same State - Tryptophan A (Freestyle 3)]	16.8	26.8			27
AAGUGGCACGGAAGGAGCGAGUUUACCUAGAUAACAUGAGGAUCACCCAUGUAUAAUGGGACUCAGGUAGGUCGCCGCUGUCACU [#30 Same State - Arginine B]	34.9	58.3	41.5	41.5	38.6
UUUUACAUGAGGAUCACCCAUGUGCGGCGCCGAGGACCGGUACGGCCGCCACUCGCAUGGGCAUGCCGCGAUAUCAUUCCUGAAC [theeternabot_sameState_MS2_Trp_A_43]	53.6	249			306
CACGGACGAGUGGAUCACCCUUGUAAUAACCGAGGACCGGUACGGCCGCCACUCGAAAACCGUGACCUGUACGAAAAGUGCAGGA	14.2	148	195	26.5	466
CGGGUUAGGGCGGCCGCCACUGUGGCUACGGUACAUGAGGAUCACCCAUGUUUGUGGUUGAUCUACAGGACCGGGCCCUGACACG [Geusrean]	440	865	203	102	2560
UUUUUUAACUGAAGGAGCGUCACAUGAGGAUCACCCAUGUAUUAGAUGAGAAUGAUCUUGUGGCAGGUAGGUCGCAGAGGAAGGG [#30 Exclusion - Arginine B]	521	167	370	327	271
GGGUCGCGUUCGGCCGCCACUUGGAAACAUGAGGAUCACCCAUGUCAUAUGGUGGGACAUGUUGUAAGGACCGGGAACCGUCCUA [theeternabot_exclusion_MS2_Trp_B_11]	34.6	82.1			83.4
UAAAAUAAUAAUGAUACCAGCCCUCCCUCCCGGGACAUGAGGAUCACCCAUGUCUCUCCCGGCCCUUGGCAGCAUAAAUAAUAAU [Same Stare - Theophylline B]	12.1	15	12.1		
AAAAUAAAAGGUGCAAAAUCCUAAUGUGAAGGAGCGCACGAAAGUGCAGGUAGGUCGCACAUGAGGAUCACCCAUGUAGCACCAA [ArgEX 4 #SwitchBubble]	54.8	115	147	146	211
UCGUAUGCGGCGGCCGCCACUCGCGGAUAACGAGAGCUUAACAUGAGGAUCACCCAUGUGUCAUGGAGGACCGGGCCCAUUCACA [popmullin]	30.4	40.2			37.5
GUAAUAUACAGAAGGAGCGUGAUAGUGAGCUUGUACAACAUGAGGAUCACCCAUGUAUAAUCACAGGUAGGUCGCUGUAUAGGGU [Arg B SS t2]	17	21.9	17.8	16.1	15.4
GCUGUAAGUGCAGAUACCAGCAGGUGAUAUUUCAUAUGACAUGAGGAUCACCCAUGUAACUGCCCUUGGCAGCUGCACUUACAGC [SSTHB #9]	172	193	523		
ACAUGAGGAUCACCCAUGUAAUACCGGGAAGGAGCGCGUAAGGACGCAGGUAGGUCGCUCGGCGUCCGGCCGCAAGGCCGGACGA [#1 Same State - Arginine A Attempt #12 (HarryS)]	21	24.3	14.7	14.4	10.7
GGGACAUGAGGAUCACCCAUGUACCGGUCCCGAGGACCGGUACGGCCGCCACUCGAUGACCUCAUAGUCUGCCUGAGCAGCAGAC [Abebeti]	49.1	96.6			140
